Results as given in patent publication US20190315859A1 (EUREKA THERAPEUTICS, published 2019).

T1: human CD19 expressed on the cell surface (native format) (human, UniProt P15391 20-488)
T1 construct: Endogenous on Raji, Jeko-1 and primary human B cells (CD20+CD3- gate); transduced into NIH/3T3 (3T3-CD19); also called hCD19; cell-surface human CD19
T1 sequence: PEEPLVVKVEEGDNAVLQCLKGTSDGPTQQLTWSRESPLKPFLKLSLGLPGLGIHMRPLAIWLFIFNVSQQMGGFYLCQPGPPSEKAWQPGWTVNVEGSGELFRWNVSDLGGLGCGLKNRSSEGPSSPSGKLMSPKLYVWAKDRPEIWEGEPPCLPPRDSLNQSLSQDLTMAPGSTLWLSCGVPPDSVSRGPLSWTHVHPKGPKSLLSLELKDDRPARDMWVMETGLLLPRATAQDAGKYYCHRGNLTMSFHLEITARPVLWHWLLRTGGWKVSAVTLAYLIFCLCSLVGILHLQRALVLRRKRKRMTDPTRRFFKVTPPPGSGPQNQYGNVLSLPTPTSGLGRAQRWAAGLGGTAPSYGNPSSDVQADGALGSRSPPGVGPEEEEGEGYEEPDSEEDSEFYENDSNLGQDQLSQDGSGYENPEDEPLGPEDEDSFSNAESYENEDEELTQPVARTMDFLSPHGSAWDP

T2: Recombinant human CD19 ECD-Fc fusion protein (human, UniProt P15391 20-291, biotinylated for the Octet assay (sites not given); not biotinylated when coated for ELISA)
T2 construct: domain: Fc of human IgG1 lacking the CH1 domain and including the hinge region; also called human CD19-Fc; hCD19 ECD-Fc; not shown: Fc of human IgG1 lacking the CH1 domain and including the hinge region
T2 sequence: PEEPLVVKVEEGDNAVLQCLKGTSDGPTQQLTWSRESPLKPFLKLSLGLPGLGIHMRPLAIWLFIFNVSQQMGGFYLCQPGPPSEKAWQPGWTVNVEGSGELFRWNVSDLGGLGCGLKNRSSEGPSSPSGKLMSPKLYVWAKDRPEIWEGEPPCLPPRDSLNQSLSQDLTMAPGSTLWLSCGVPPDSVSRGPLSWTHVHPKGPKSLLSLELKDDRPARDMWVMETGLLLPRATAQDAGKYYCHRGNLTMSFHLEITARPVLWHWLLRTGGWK

B1: 40 (scFv)
scFv (VL-linker-VH), shown on M13 phage: EIVMTQSPLSLSVTPGEPASISCRSSQSLLDSNGFNSLDWYLQKPGQSPQLLIHLGSDRASGVPDRFSGSGSGTDFTLKISRVEAEDVGIYYCMQSLQIPTFGQGTKVEIKRSRGGGGSGGGGSGGGGSLEMAQMQLVQSGAEVKKAGSSVKVSCETSGGTFSSSSVNWVRQAPGQGLEWMGGIIPIVGTPNYAQKFQDRVTITAVESTFTAYMELSGLRSEDTAVYYCARGGYRDYMDVWGRGTTVTVSS
notes: hit from protein screening (ELISA); also called clone 40; anti-human CD19 scFv phage clone 40
B2: 54 (scFv)
scFv (VL-linker-VH), shown on M13 phage: SYVLTQPPSVSVSPGQTASITCSGDKLGDKYASWYQQKPGQSPVLVIYQDNKRPSGIPERFSGSNSGNTATLTISGTQAMDEADYYCQAWDSSTEDVFGPGTKVTVLGSRGGGGSGGGGSGGGGSLEMAEVQLVESGGGLIQPGGSLRLSCAASGFTVSSNYMSWVRQAPGKGLEWVSVIYSGGSTYYADSVKGRFTISRDNSKNTLYLQMNSLRAEDTAVYYCARGGISDDYYGSGSYDNWGQGTLVTVSS
notes: hit from protein screening (ELISA); also called clone 54; anti-human CD19 scFv phage clone 54
B3: 36 (scFv)
scFv (VL-linker-VH), shown on M13 phage: DIQLTQSPSSLSAYVGDRVTITCRASQGITNSLAWYQQKPGKAPKLLLHAASRLESGVPSRFSGSGFGTDFTLTISSLQPEDFAVYYCQHYLGTPYSFGQGTKVEIKRSRGGGGSGGGGSGGGGSLEMAEVQLVESGGGLVQPGGSLRLSCAASGFTVSSNYMSWVRQAPGKGLEWVSAISGSGGSTYYADSVKGRFTISRDNSKNTLYLQMNSLRAEDTAVYYCARMNIDYWGQGTLVTVSS
notes: hit from protein screening (ELISA); also called clone 36; anti-human CD19 scFv phage clone 36
B4: 23 (scFv)
scFv (VL-linker-VH), shown on M13 phage: QSVLTQPPSVSAAPGQKVTISCSGSSSNIGNNYVSWYRQLPGTAPKLLIYENNKRPSGIPDRFSGSKSGTSATLGITGLQTGDEADYYCGTWDSSLRAGVFGTGTKVTVLGSRGGGGSGGGGSGGGGSLEMAQVQLVESGGGLVQPGGSLRLSCAASGFTFSSYAMSWVRQAPGKGLEWVSGISASGGSTYYADSVKGRFTISRDNSKNTLYLQMNSLRAEDTAVYYCARYYLSQIDSWGQGTLVTVSS
notes: hit from protein screening (ELISA); also called clone 23; anti-human CD19 scFv phage clone 23
B5: 9 (scFv)
scFv (VL-linker-VH), shown on M13 phage: QTVVTQEPSVSAAPGQKVTISCSGSSSNIGNNYVSWYQQLPGTAPKLLIYDNNKRPSGIPDRFSGSKSGTSATLGITGLQTGDEADYYCGTWDSSLSAGVFGTGTKLTVLGSRGGGGSGGGGSGGGGSLEMAQVQLVETGGGLVQPGGSLRLSCAASGFTFSSYAMSWVRQAPGKGLEWVSAISGSGGSTYYADSVKGRFTISRDNSKNTLYLQMNSLRAEDTAVYYCARYYYSRLDYWGQGTLVTVSS
notes: hit from protein screening (ELISA); also called clone 9; anti-human CD19 scFv phage clone 9
B6: 43 (scFv)
scFv (VL-linker-VH), shown on M13 phage: SYELTQPPSASGTPGQRVTISCSGSSSNIGSNYVYWYQQLPGTAPKLLIYRNNQRPSGVPDRFSGSKSGTSASLAISGLRSEDEADYYCAAWDDSLSGYVFGTGTKVTVLGSRGGGGSGGGGSGGGGSLEMAEVQLVESGGGLIQPGGSLRLSCAASGFTVSSNYMSWVRQAPGKGLEWVSVIYSGGSTYYADSVKGRFTISRDNSKNTLYLQMNSLRAEDTAVYYCARGGFGAEFDYWGQGTLVTVSS
notes: hit from protein screening (ELISA); also called clone 43; anti-human CD19 scFv phage clone 43

Each binder was assayed against T1, human CD19 expressed on the cell … (assay: flow cytometry, phage clone then mouse anti-M13 antibody then R-PE anti-mouse IgG; CD19+ Raji and 3T3-CD19, CD19- Jurkat and 3T3; MFI).
Procedure: ELISA-positive phage clones were then tested for cell-surface human CD19 binding by flow cytometry using human CD19-positive Raji and 3T3-hCD19 cell lines, and human CD19 negative Jurkat and 3T3 cell lines (FIG. 1B). Cells were first stained with purified scFv phage clones, followed by mixing with a mouse anti-M13 monoclonal antibody, and finally a R-PE conjugated horse anti-mouse IgG (Vector Labs). Each step of staining was performed between 30-60 minutes on ice and cells were washed twice between stainings. One unique clone, 37, was identified to specifically bound human CD19⁺ Raji and 3T3-CD19 cells and not hCD19⁻ Jurkat and 3T3 (FIG. 1B).
B1: no binding.

The binders below were run against T2, Recombinant human CD19 ECD-Fc fusion … (assay: ELISA, plate coated with human CD19 ECD-Fc, phage clone detected with HRP-conjugated anti-M13 antibody, OD450).
Procedure: Individual phage clones from enriched phage display panning pools were incubated in the coated plates. Binding of the phage clones was detected by HRP-conjugated anti-M13 antibodies and developed using HRP substrate. The absorbance was read at 450 nm.
B2: binds. B3: binds. B4: binds. B5: binds. B6: binds.
